Key:
[1] = biological target: protein PADI4 (peptidylarginine deiminase 4) antigen (human) (UniProt Q9UM07); assay: sandwich ELISA, capture 197, dilution row B
protein PADI2 [2] = biological target: protein PADI2 (UniProt Q9Y2J8); assay: sandwich ELISA, capture 197, dilution row B
[3] = biological target: protein PADI4 (peptidylarginine deiminase 4) antigen (human) (UniProt Q9UM07); assay: sandwich ELISA, capture 197, dilution row F
protein PADI2 [4] = biological target: protein PADI2 (UniProt Q9Y2J8); assay: sandwich ELISA, capture 197, dilution row F
[5] = biological target: protein PADI4 (peptidylarginine deiminase 4) antigen (human) (UniProt Q9UM07); assay: sandwich ELISA, capture 197, dilution row A
protein PADI2 [6] = biological target: protein PADI2 (UniProt Q9Y2J8); assay: sandwich ELISA, capture 197, dilution row A
[7] = biological target: protein PADI4 (peptidylarginine deiminase 4) antigen (human) (UniProt Q9UM07); assay: sandwich ELISA, capture 197, dilution row E
protein PADI2 [8] = biological target: protein PADI2 (UniProt Q9Y2J8); assay: sandwich ELISA, capture 197, dilution row E
[9] = biological target: protein PADI4 (peptidylarginine deiminase 4) antigen (human) (UniProt Q9UM07); assay: sandwich ELISA, capture 197, dilution row C
protein PADI2 [10] = biological target: protein PADI2 (UniProt Q9Y2J8); assay: sandwich ELISA, capture 197, dilution row C
[11] = biological target: protein PADI4 (peptidylarginine deiminase 4) antigen (human) (UniProt Q9UM07); assay: sandwich ELISA, capture 197, dilution row G
protein PADI2 [12] = biological target: protein PADI2 (UniProt Q9Y2J8); assay: sandwich ELISA, capture 197, dilution row G
[13] = biological target: protein PADI4 (peptidylarginine deiminase 4) antigen (human) (UniProt Q9UM07); assay: sandwich ELISA, capture 197, dilution row H (maybe blank)
protein PADI2 [14] = biological target: protein PADI2 (UniProt Q9Y2J8); assay: as above
[15] = biological target: protein PADI4 (peptidylarginine deiminase 4) antigen (human) (UniProt Q9UM07); assay: sandwich ELISA, capture 197, dilution row D
protein PADI2 [16] = biological target: protein PADI2 (UniProt Q9Y2J8); assay: sandwich ELISA, capture 197, dilution row D

UniProt Q9Y2J8, sequence (Q9Y2J8 whole entry): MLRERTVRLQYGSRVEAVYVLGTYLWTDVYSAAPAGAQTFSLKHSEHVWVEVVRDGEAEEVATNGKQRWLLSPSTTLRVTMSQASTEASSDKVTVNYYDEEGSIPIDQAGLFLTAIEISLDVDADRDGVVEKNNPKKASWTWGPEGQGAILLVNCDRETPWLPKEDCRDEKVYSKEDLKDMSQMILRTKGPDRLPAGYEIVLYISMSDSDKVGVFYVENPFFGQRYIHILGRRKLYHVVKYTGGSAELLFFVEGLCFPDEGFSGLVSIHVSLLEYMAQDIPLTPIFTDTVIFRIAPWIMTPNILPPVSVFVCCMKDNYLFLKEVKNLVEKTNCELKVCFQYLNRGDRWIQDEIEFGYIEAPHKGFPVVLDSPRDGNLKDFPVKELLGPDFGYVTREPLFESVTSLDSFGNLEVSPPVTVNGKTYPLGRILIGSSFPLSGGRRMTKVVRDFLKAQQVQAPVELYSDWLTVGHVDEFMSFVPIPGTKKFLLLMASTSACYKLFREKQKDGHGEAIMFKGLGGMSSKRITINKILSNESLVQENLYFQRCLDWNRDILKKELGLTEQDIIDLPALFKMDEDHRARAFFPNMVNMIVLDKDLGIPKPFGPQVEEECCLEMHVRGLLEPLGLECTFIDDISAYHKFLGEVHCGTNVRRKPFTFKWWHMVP

B1: monoclonal antibody 135-B9 (antibody, human IgG1, kappa, V domains shown)
VH: EVKLQESGPGILQPSQTLSLTCSFSGFSLSTSGMCVGWIRQPSGKGLEWLAHIWWDDDKRYNPALKSRLTISKDTSSNQVFLKIASVDTADTATYYCARYYRFDEGFDYWGQGTTLTVSS
VL: DIVITQDELSNPVTLGTSASISCRSSKSLLHSDGITYLYWYLQKPGQSPQLLIYQMSNLASGVPDRFSSSGSGTDFTLRISRVEAEDVGVYYCAQNLELPLTFGAGTKLELKR
[1]
  OD: 3.95 OD
Protein PADI2 [2]
  OD: 0.05 OD
[3]
  OD: 0.92 OD
Protein PADI2 [4]
  OD: 0.05 OD
[5]
  OD: 4.13 OD
Protein PADI2 [6]
  OD: 0.06 OD
[7]
  OD: 1.69 OD
Protein PADI2 [8]
  OD: 0.05 OD
[9]
  OD: 3.53 OD
Protein PADI2 [10]
  OD: 0.05 OD
[11]
  OD: 0.46 OD
Protein PADI2 [12]
  OD: 0.05 OD
[13]
  OD: 0.04 OD
Protein PADI2 [14]
  OD: 0.06 OD
[15]
  OD: 2.47 OD
Protein PADI2 [16]
  OD: 0.05 OD

Reference: patent US20220268777A1
